# Data as given in the supplement of paper PMC9233669.
# Variants at the floor of the assay were thinned out.
# Legend:
# biotinyl-Met-oxazolone = assay: self-aminoacylation, catalytic enhancement (BMO) (fold over background); higher = more active; k-Seq, kA / k0A0; sequences stand for … in GGGAAUGGAUCCACAUCUACGAAUUC…UUCACUGCAGACUUGACGAAGCUG
# In short: (§1)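 Mutagenized RNA pools (0.43 μM; 21-nt variable region) were treated with 2–1250 μM of each biotinyl-aminoacyl-oxazolone. Conditions were 50 μL HEPES/NaCl/KCl/MgCl2/CaCl2 buffer, 5% acetonitrile, pH 6.9–7.0, room temperature, 90 minutes. Catalytic enhancement, the median kA relative to the uncatalyzed rate, was derived from streptavidin capture, qPCR and Illumina sequencing.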
# biotinyl-Leu-oxazolone = assay: self-aminoacylation, catalytic enhancement (BLO) (fold over background); higher = more active; k-Seq, kA / k0A0; sequences stand for … in GGGAAUGGAUCCACAUCUACGAAUUC…UUCACUGCAGACUUGACGAAGCUG
# In short: as §1
# biotinyl-Ile-oxazolone = assay: self-aminoacylation, catalytic enhancement (BIO) (fold over background); higher = more active; k-Seq, kA / k0A0; sequences stand for … in GGGAAUGGAUCCACAUCUACGAAUUC…UUCACUGCAGACUUGACGAAGCUG
# In short: as §1
# biotinyl-Phe-oxazolone = assay: self-aminoacylation, catalytic enhancement (BFO) (fold over background); higher = more active; k-Seq, kA / k0A0; sequences stand for … in GGGAAUGGAUCCACAUCUACGAAUUC…UUCACUGCAGACUUGACGAAGCUG
# In short: as §1
# biotinyl-Val-oxazolone = assay: self-aminoacylation, catalytic enhancement (BVO) (fold over background); higher = more active; k-Seq, kA / k0A0; sequences stand for … in GGGAAUGGAUCCACAUCUACGAAUUC…UUCACUGCAGACUUGACGAAGCUG
# In short: as §1
# biotinyl-Trp-oxazolone = assay: self-aminoacylation, catalytic enhancement (BWO) (fold over background); higher = more active; k-Seq, kA / k0A0; sequences stand for … in GGGAAUGGAUCCACAUCUACGAAUUC…UUCACUGCAGACUUGACGAAGCUG
# In short: as §1
Sequence,self-aminoacylation (biotinyl-Met-oxazolone),self-aminoacylation (biotinyl-Leu-oxazolone),self-aminoacylation (biotinyl-Ile-oxazolone),self-aminoacylation (biotinyl-Phe-oxazolone),self-aminoacylation (biotinyl-Val-oxazolone),self-aminoacylation (biotinyl-Trp-oxazolone)
AUUCACCUAGGUCAACGGGUA [Fam2.2 aminoacylation ribozyme variant],1.12,1.29,1.41,0.801,1.08,1.83
ACUACCCUGGUCAUCGAGCGA [Fam2.1 aminoacylation ribozyme variant],1.91,1.95,2.04,2.05,1.94,1.82
UCACACUUCAAACAAUCGGUC [Fam1B.1 aminoacylation ribozyme variant],1.66,2.25,1.34,89.1,1.55,42.8
AAGUUUGCUAAUCGACGCAAG [Fam3.1 aminoacylation ribozyme variant],0.581,0.477,0.534,0.783,0.547,0.72
AUCCACCUAGGUCAUCUGGUG [Fam2.2 aminoacylation ribozyme variant],2.77,3.74,2.26,26.4,2.28,2.77
CCACACUUCAGGCUAUCGGUC [Fam1B.1 aminoacylation ribozyme variant],1.1,1.23,1.33,0.514,1.33,1.39
AUUACCAUGGUCAUCGAGUCA [Fam2.1 aminoacylation ribozyme variant],0.695,0.823,0.821,0.683,0.778,0.451
AAGUUUGCUACUAGCCGCAAG [Fam3.1 aminoacylation ribozyme variant],0.786,0.51,0.746,1.27,0.638,0.996
ACUCGCCUAGGUCAUCGGGUG [Fam2.2 aminoacylation ribozyme variant],9.99,11,6.84,62.9,6.73,10.9
AAGUGUCCUAAUAGUCGCAAG [Fam3.1 aminoacylation ribozyme variant],0.945,0.952,1.18,0.985,0.995,0.664
CUACAUCAACCAAUCGGUCUG [Fam1A.1 aminoacylation ribozyme variant],0.748,0.554,0.643,1.44,0.781,0.796
CUACUUCAAACAAUCGGACAG [Fam1A.1 aminoacylation ribozyme variant],0.718,0.672,0.782,1.19,0.709,0.656
CCACUCUUCAAGCCAUCGGUC [Fam1B.1 aminoacylation ribozyme variant],1.1,1.15,1.09,0.734,1.21,0.953
AUUCACCUAGGUCAUCGUAUG [Fam2.2 aminoacylation ribozyme variant],0.503,0.553,0.593,0.528,0.737,0.207
CUACUGCAAACAAUCGGGCUG [Fam1A.1 aminoacylation ribozyme variant],1.69,1.61,1.74,8.54,1.98,0.887
ACACACUUCAAGCAAUCUGUC [Fam1B.1 aminoacylation ribozyme variant],0.567,0.58,0.759,1.39,1.02,0.683
AUUACCCUGGUCAUUGCGUGA [Fam2.1 aminoacylation ribozyme variant],15.8,18.1,6.44,108,7.31,17.1
AAGGUUGCUAAUAGUCGAAAG [Fam3.1 aminoacylation ribozyme variant],1.36,0.938,1.51,6.22,1.44,2.33
CCAGACUUUAAGCAAUCGGUC [Fam1B.1 aminoacylation ribozyme variant],0.874,0.94,1.11,1.04,0.922,0.821
AAGUUUGCUAAUAGCGGCAAG [Fam3.1 aminoacylation ribozyme variant],0.508,0.575,0.668,0.964,0.646,0.924
CCACACUUCGAGCAAUCGGUG [Fam1B.1 aminoacylation ribozyme variant],2.48,3.3,1.62,15.2,1.91,2.07
AUUACGCUGUUCAUCGAGUGA [Fam2.1 aminoacylation ribozyme variant],3.87,3.57,2.4,4.19,2.71,4.58
AGGUUUGAUAAUAGUCGCAAG [Fam3.1 aminoacylation ribozyme variant],1.57,1.67,1.55,3.51,1.54,1.8
AUUCACCUAGGUCAUCAGGCG [Fam2.2 aminoacylation ribozyme variant],1.47,1.54,1.26,1.02,1.32,1.87
GUUCACCUCGGUCAUCGGGUG [Fam2.2 aminoacylation ribozyme variant],4.1,4.52,3.61,28.6,4.29,3.77
CUACUUGAGACAAUCGGUCUG [Fam1A.1 aminoacylation ribozyme variant],0.94,0.962,0.884,0.89,1.01,1.1

Sequence,self-aminoacylation (biotinyl-Met-oxazolone),self-aminoacylation (biotinyl-Leu-oxazolone),self-aminoacylation (biotinyl-Ile-oxazolone),self-aminoacylation (biotinyl-Phe-oxazolone),self-aminoacylation (biotinyl-Val-oxazolone),self-aminoacylation (biotinyl-Trp-oxazolone)
CCACACUUAAAGCAAUCGGUG [Fam1B.1 aminoacylation ribozyme variant],3.87,4.31,2.75,26,2.42,4.42
AUUCACCUAAGCCAUCGGGUG [Fam2.2 aminoacylation ribozyme variant],3,4.62,2.55,26.6,3.24,3.01
AAGUUUUAUAAUAGUCGCAAG [Fam3.1 aminoacylation ribozyme variant],1.77,1.61,1.72,3.02,1.64,1.99
AUACUGCAAACAAUCGGUCUG [Fam1A.1 aminoacylation ribozyme variant],1.09,1.18,1.08,2.49,1.05,1.44
AAGUUUGCUUAUAGUAGCAAG [Fam3.1 aminoacylation ribozyme variant],1.06,1.08,1.04,1.56,1.12,0.878
AAGUUUGCUAAUAGUAGCUAG [Fam3.1 aminoacylation ribozyme variant],1.28,0.639,0.958,1.05,0.988,1.14
AUUACCCUGCUCAUUGAGUGA [Fam2.1 aminoacylation ribozyme variant],4.57,4.39,2.27,19.1,2.39,5.58
AUUCAACUAGGUCUUCGGGUG [Fam2.2 aminoacylation ribozyme variant],4.21,4.84,2.93,29.8,3.01,4.34
GUACUUCAAACAAUCUGUCUG [Fam1A.1 aminoacylation ribozyme variant],1.41,1.45,1.76,4.1,1.56,3.06
AUUCAACUAGGUUAUCGGGUG [Fam2.2 aminoacylation ribozyme variant],3.29,3.61,2.21,22.1,2.45,3.46
CUUACGCUGGUCAUCGAGUGA [Fam2.1 aminoacylation ribozyme variant],3.06,3.03,2.13,7.86,2.61,3.35
AUUCCCCUCGGUCAUCGGGUG [Fam2.2 aminoacylation ribozyme variant],21.1,30.8,14.8,211,14,22.6
CUUCUCCUAGGUCAUCGGGUG [Fam2.2 aminoacylation ribozyme variant],6.43,8.84,4.42,35.6,4.48,6.52
UCACACUUCAAUCAAUCGGUC [Fam1B.1 aminoacylation ribozyme variant],1.12,1.49,1.11,35.5,1.08,21.3
CUUACCCUGGUCAACGAGUGA [Fam2.1 aminoacylation ribozyme variant],5.06,5.08,2.56,15.8,3.29,6.73
CUUUACCUAGGUCAUCGGGUG [Fam2.2 aminoacylation ribozyme variant],5.23,7.1,3.85,25.3,3.71,5.46
CCACACUUCAAGCAAUCGUCC [Fam1B.1 aminoacylation ribozyme variant],0.412,0.518,0.54,1.57,0.652,1.06
AUUCGCCUAGGUCAUCGGGUA [Fam2.2 aminoacylation ribozyme variant],46.9,68.8,25.1,391,23.4,35.3
GCACACUUCGAGCAAUCGGUC [Fam1B.1 aminoacylation ribozyme variant],1.9,1.46,1.87,2.2,1.81,2.86
AUUCAUCUAGGUCAUUGGGUG [Fam2.2 aminoacylation ribozyme variant],4.21,4.98,2.67,26.7,2.77,4.24
AUUCAGCUAGGUCAUCAGGUG [Fam2.2 aminoacylation ribozyme variant],2.38,2.39,1.63,8.1,2.04,2.09
CCACACUCCAAGAAAUCGGUC [Fam1B.1 aminoacylation ribozyme variant],0.768,0.848,1.31,0.991,0.973,1
CUACUUCAAACAAUCGAUCGG [Fam1A.1 aminoacylation ribozyme variant],0.56,0.721,0.647,0.743,0.73,0.676
AUUCGCCUAGGUCCUCGGGUG [Fam2.2 aminoacylation ribozyme variant],6.35,8.24,4.84,46.8,4.56,6.48
AUUCACCUAGGUCAUUGGGUU [Fam2.2 aminoacylation ribozyme variant],1.34,1.15,1.23,5.73,1.19,1.52
